This note sets out measurements from patent US20090018093.

Data set [1] has as its system Immunoglobulin E (IgE) (Homo sapiens), P01854-1. In words: filter.
For data set [2] the test system is unchanged. Nature of the data set: inhibition.
Setting [3] is: dRmY: 2'-deoxy A,G, 2'-OMe C,U, 1xPBS, BSA, tRNA, ssDNA, 25 C.
The mark [4] stands for this setting: 2'-OMe C,U, deoxy A,G, FACS, 15 nM IgE.

Where two headings read alike, the source gives them in different places.

Chain of Immunoglobulin E (IgE) (Homo sapiens), P01854-1 (P01854 other isoform, or with tags, fused parts or gaps): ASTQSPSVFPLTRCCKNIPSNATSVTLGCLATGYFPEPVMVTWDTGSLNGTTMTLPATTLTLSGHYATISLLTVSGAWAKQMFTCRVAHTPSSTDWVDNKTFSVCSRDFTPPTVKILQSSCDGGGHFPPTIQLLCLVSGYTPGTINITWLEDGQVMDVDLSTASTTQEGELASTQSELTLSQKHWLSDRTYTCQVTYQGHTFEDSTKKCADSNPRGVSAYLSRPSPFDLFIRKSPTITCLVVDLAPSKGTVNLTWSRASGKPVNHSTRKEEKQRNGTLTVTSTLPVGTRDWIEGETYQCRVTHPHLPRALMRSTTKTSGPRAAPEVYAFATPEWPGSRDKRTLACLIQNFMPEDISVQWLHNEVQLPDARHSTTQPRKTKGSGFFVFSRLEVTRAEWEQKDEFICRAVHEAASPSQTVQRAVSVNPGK

Turning to AGCCUGGGGACCCAUGGGGGGCU [ARC1335], the Kd (in general, the constant that tells how readily two partners part at equilibrium) in data set [1] (2'-OMe C,U,A1,G2,G7,A10,A14,G17, deoxy G6,G8,G9,G16,G18-G21, 3' idT [2'-OMe: 1-5,7,10-15,17,22,23, deoxy: 6,8,9,16,18-21, 24 = 3' inverted dT], dPBS Ca/Mg + BSA, RT) worked out at 0.3 nM. In data set [2] (2'-OMe A1,G2,G7,A10,A14,G17 and all C,U, rest 2'-deoxy, 3' idT [2'-OMe at 1,2,3,4,5,7,10,11,12,13,14,15,17,22,23, 2'-deoxy at 6,8,9,16,18,19,20,21, 3' idT left out], FACS, 2.5 nM IgE), the 50% inhibitory concentration (IC50) (as a rule, the point on the concentration scale where inhibition reaches its midpoint) was 7.3 nM.
As to AGCCUGGGGACCCAUGGGGGGCU [ARC1337], in data set [1] (as printed dA-s-mGmCmCmUdGmGdGdG-s-mAmCmCmCmAmU-s-dG-s-mGdGdGdG-s-dGmCmU-3T [deoxy: 1,6,8,9,16,18-21, 2'-OMe: 2-5,7,10-15,17,22,23, phosphorothioate after 1,9,15,16,20 (also after 18 per given string), 24 = 3' inverted dT], dPBS Ca/Mg + BSA, RT), the Kd was determined as 0.2 nM. The IC50 in data set [2] (2'-OMe/2'-deoxy mix, PS, 3' idT [PS after 1,9,15,16,18,20, 2'-OMe/2'-deoxy mix, 3' idT left out], FACS, 2.5 nM IgE) is 4.7 nM.
The sequence AGCCUGGGGACCCAUGGGGGGCU [ARC1382] showed a Kd in data set [1] (2'-OMe/2'-deoxy mix, PS linkages as in Table 17, 3' idT [phosphorothioate linkages (internal N, left out) between 8-9, 18-19, 20-21, 2'-OMe/2'-deoxy mix (positions not given), 3' inverted dT at 24], DPBS Mg/Ca, 0.1 mg/mL BSA, RT) of 1.1 nM. The same sequence gave an IC50 in data set [2] (2'-OMe/2'-deoxy mix, PS linkages as in Table 17, 3' idT [phosphorothioate linkages (internal N, left out) between 8-9, 18-19, 20-21, 2'-OMe/2'-deoxy mix (positions not given), 3' inverted dT at 24], FACS, 2.5 nM IgE) of 6.9 nM.
Take AGCCUGGGGACCCAUGGGGGGCU [ARC1383]: the Kd in data set [1] (2'-OMe/2'-deoxy mix, PS linkages as in Table 17, 3' idT [phosphorothioate linkages (internal N, left out) between 8-9, 15-16, 18-19, 20-21, 2'-OMe/2'-deoxy mix (positions not given), 3' inverted dT at 24], DPBS Mg/Ca, 0.1 mg/mL BSA, RT) was found to be 1 nM. In data set [2] (2'-OMe/2'-deoxy mix, PS linkages as in Table 17, 3' idT [phosphorothioate linkages (internal N, left out) between 8-9, 15-16, 18-19, 20-21, 2'-OMe/2'-deoxy mix (positions not given), 3' inverted dT at 24], FACS, 2.5 nM IgE), this sequence had an IC50 of 7.5 nM.
AGCCUGGGGACCCAUGGGGGGCU [ARC1384]: the Kd in data set [1] (as printed mAmGmCmCmUdGmG-s-dGmAmCmCmCmAmU-s-dG-s-mGdG-s-dGdG-s-dGmCmU-3T [2'-OMe: 1-5,7,10-15,17,22,23, deoxy: 6,8,9,16,18-21, phosphorothioate after 8,15,16,18,20, 24 = 3' inverted dT], dPBS Ca/Mg + BSA, RT) was 0.5 nM. This sequence also displayed an IC50 in data set [2] (2'-OMe/2'-deoxy mix, PS, 3' idT [PS after 8,15,16,18,20, 2'-OMe/2'-deoxy mix, 3' idT left out], FACS, 2.5 nM IgE) of 4.4 nM.
AGCCUGGGGACCCAUGGGGGGCU [ARC1572] returned a Kd in data set [1] (2'-OMe/2'-deoxy mix, PS linkages as in Table 17, 3' idT [phosphorothioate linkages (internal N, left out) between 5-6, 7-8, 8-9, 15-16, 17-18, 18-19, 19-20, 20-21, 2'-OMe/2'-deoxy mix (positions not given), 3' inverted dT at 24], DPBS Mg/Ca, 0.1 mg/mL BSA, RT) of 0.3 nM. In data set [2] (2'-OMe/2'-deoxy mix, PS linkages as in Table 17, 3' idT [phosphorothioate linkages (internal N, left out) between 5-6, 7-8, 8-9, 15-16, 17-18, 18-19, 19-20, 20-21, 2'-OMe/2'-deoxy mix (positions not given), 3' inverted dT at 24], FACS, 2.5 nM IgE), this sequence yielded an IC50 of 22.8 nM.
Consider AGCCUGGGGACCCAUGGGGGGCU [ARC1573], for which, in data set [1] (as printed mAmGmCmCmU-s-dG-s-mG-s-dG-s-dGmAmCmCmCmAmU-s-dG-s-mG-s-dG-s-dG-s-dG-s-dG-s-mCmU-3T [2'-OMe: 1-5,7,10-15,17,22,23, deoxy: 6,8,9,16,18-21, phosphorothioate after 5-8,15-21, 24 = 3' inverted dT], dPBS Ca/Mg + BSA, RT), the Kd was found to be 0.4 nM. In data set [2] (2'-OMe/2'-deoxy mix, PS, 3' idT [PS after 5,6,7,8,15,16,17,18,19,20,21, 2'-OMe/2'-deoxy mix, 3' idT left out], FACS, 2.5 nM IgE), this sequence registered an IC50 of 69.4 nM.
With AGCCUGGGGACCCAUGGGGGGCU [ARC1641], the Kd in data set [1] (mAmGmCmCmUdGmGdG-s-dGmAmCmCmCmAmU-s-dG-s-mGdG-s-dGdI-s-dGmCmU-3T [2'-OMe 1-5,7,10-15,17,22,23, dI20 (inosine, parent base G), phosphorothioate 8/9,15/16,16/17,18/19,20/21 (N linkage letters left out), 3' inverted dT24], dPBS Ca/Mg + BSA, RT) stood at 0.4 nM. Moreover, in data set [2] (2'-OMe/2'-deoxy mix, dI20, PS, 3' idT [dI at 20 (written as parent G), PS after 8,15,16,18,20, 2'-OMe/2'-deoxy mix, 3' idT left out], FACS, 2.5 nM IgE), the IC50 worked out at 1.8 nM.
Regarding AGCCUGGGGACCCAUGGGGGGCU [ARC1642], the Kd in data set [1] (2'-OMe/2'-deoxy mix, dI16,dI20, PS, 3' idT [16=dI, 20=dI (G parent), 24=3' inverted dT, phosphorothioate linkage N's left out], DPBS Mg/Ca, 0.1 mg/mL BSA, RT) was 0.4 nM. Moreover, the IC50 in data set [2] (2'-OMe/2'-deoxy mix, dI16,dI20, PS, 3' idT [16=dI, 20=dI (G parent), 24=3' inverted dT, phosphorothioate linkage N's left out], FACS, 2.5 nM IgE) came to 1.8 nM.
For the sequence AGCCUGGGGACCCAUGGGGGGCU [ARC1643], the Kd in data set [1] (2'-OMe/2'-deoxy mix, dI20, PS, 3' idT [20=dI (G parent), 24=3' inverted dT, phosphorothioate linkage N's left out (5^6, 7^8, 8^9, 15^16, 17^18, 18^19, 19^20, 20^21)], DPBS Mg/Ca, 0.1 mg/mL BSA, RT) amounted to 1.1 nM. Further, the IC50 in data set [2] (2'-OMe/2'-deoxy mix, dI20, PS, 3' idT [20=dI (G parent), 24=3' inverted dT, phosphorothioate linkage N's left out (5^6, 7^8, 8^9, 15^16, 17^18, 18^19, 19^20, 20^21)], FACS, 2.5 nM IgE) was 8 nM.
With AGCCUGGGGACCCAUGGGGGGCU [ARC1644], the Kd in data set [1] (2'-OMe/2'-deoxy mix, dI16,dI20, PS, 3' idT [16=dI, 20=dI (G parent), 24=3' inverted dT, phosphorothioate linkage N's left out (5^6, 7^8, 8^9, 15^16, 17^18, 18^19, 19^20, 20^21)], DPBS Mg/Ca, 0.1 mg/mL BSA, RT) came to 1.7 nM. The IC50 in data set [2] (2'-OMe/2'-deoxy mix, dI16,dI20, PS, 3' idT [16=dI, 20=dI (G parent), 24=3' inverted dT, phosphorothioate linkage N's left out (5^6, 7^8, 8^9, 15^16, 17^18, 18^19, 19^20, 20^21)], FACS, 2.5 nM IgE) came to 5.2 nM.
As for AGCCUGGGGACCCAUGGGGGGCU [ARC1667], the Kd in data set [1] (2'-OMe/2'-deoxy mix, dI18,dI20, PS as printed, 3' idT [18=dI, 20=dI (G parent), 24=3' inverted dT, phosphorothioate linkage N's left out], DPBS Mg/Ca, 0.1 mg/mL BSA, RT) was determined as 0.4 nM. In data set [2] (2'-OMe/2'-deoxy mix, dI18,dI20, PS as printed, 3' idT [18=dI, 20=dI (G parent), 24=3' inverted dT, phosphorothioate linkage N's left out], FACS, 2.5 nM IgE), the IC50 was found to be 2.3 nM.
AGCCUGGGGACCCAUGGGGGGCU [ARC1728]: the Kd in data set [1] (2'-OMe/2'-deoxy mix, dI, PS, 3' idT [18=dI, 20=dI (G parent), 24=3' inverted dT, phosphorothioate linkage N's left out (5^6, 7^8, 8^9, 15^16, 17^18, 18^19, 19^20, 20^21)], DPBS Mg/Ca, 0.1 mg/mL BSA, RT) is 2.3 nM. Besides, in data set [2] (2'-OMe/2'-deoxy mix, dI, PS, 3' idT [18=dI, 20=dI (G parent), 24=3' inverted dT, phosphorothioate linkage N's left out (5^6, 7^8, 8^9, 15^16, 17^18, 18^19, 19^20, 20^21)], FACS, 2.5 nM IgE), the IC50 is 13.2 nM.
AGCCUGGGGACCCAUGGGGGGCU [ARC1729]: the Kd in data set [1] (2'-OMe/2'-deoxy mix, dI16,dI18,dI20, PS as printed, 3' idT [16=dI, 18=dI, 20=dI (G parent), 24=3' inverted dT, 2'-OMe at 1-5,7,10-15,17,22,23, phosphorothioate linkage N's left out (5^6, 7^8, 8^9, 15^16, 17^18, 18^19, 19^20, 20^21)], DPBS Mg/Ca, 0.1 mg/mL BSA, RT) was 1 nM. Further, the IC50 in data set [2] (2'-OMe/2'-deoxy mix, dI16,dI18,dI20, PS as printed, 3' idT [16=dI, 18=dI, 20=dI (G parent), 24=3' inverted dT, 2'-OMe at 1-5,7,10-15,17,22,23, phosphorothioate linkage N's left out (5^6, 7^8, 8^9, 15^16, 17^18, 18^19, 19^20, 20^21)], FACS, 2.5 nM IgE) came to 2.9 nM.
Consider AGUUCUGGGGACCCAUGGGGGAACU [ARC443], for which the Kd in data set [1] (setting [3]) was 55 nM. Besides, the IC50 in data set [2] (setting [4]) was determined as 30.2 nM.
For GCCUGGGGACCCAUGGGGGGC [ARC444], in data set [1] (setting [3]), the Kd is 73 nM. Also, the IC50 in data set [2] (setting [4]) came to 52.4 nM.
Turning to “GGAAAAGCGAAUCAUACACAAGAGUCGCGAUAGAUUGCUUGUGAAUGGUUUUGGUGGAAGCGGGCUCCGCCAGAGACCAACCGAGAA [rRfY clone SEQ 12]”, in data set [1] (2'-F C and U, biphasic, KD2 9.85 nM, 1xSHMCK + 0.1 mg/mL tRNA, RT), the Kd was found to be 0.057 nM. The 50% inhibitory concentration (IC50) in data set [2] (2'-F C,U, ELISA FceR1-Fc, FACS 7.1 nM (Table 25)) was 5 nM.
Regarding “GGAAUCAUACACAAGACGUCGCCAGAUUGAGUGUCGUGGUUCC [rRfY minimer SEQ 91]”, the Kd in data set [1] (2'-F C and U, KD2 36.9 nM, 1xSHMCK + tRNA) is 0.56 nM. The sequence also had an IC50 in data set [2] (2'-F C,U, FACS, 15 nM IgE) of 3.8 nM.
In data set [1], “GGCGGCAGCTTTATCCGTACCTCCCAGTGGGCTGCTCC [DNA clone SEQ 149]” came in with a Kd of 0.8 nM. In data set [2] (FACS, 15 nM IgE), this sequence gave an IC50 of 55.9 nM.
Take “GGGAAAAGCGAAUCAUACACAAGACGUCAGUAAGAUUGAGUGUAUGGUUCCUGGUGGACAAUAAUGGCUCCGCCAGAGACCAACCGAGAA [rRfY clone SEQ 21]”: the Kd in data set [1] (2'-F C and U, biphasic, KD2 27.1 nM, 1xSHMCK + tRNA, RT) is 0.183 nM. In addition, the IC50 in data set [2] (2'-F C,U, ELISA FceR1-Fc, FACS 14.4 nM (Table 25)) was determined as 3.7 nM.
As for “GGGAAAAGCGAAUCAUACACAAGAGGUCUUACAGAUCCUGUGUAGUGGUUCGAUACAUGCGGGGCUCCGCCAGAGACCAACCGAGAA [rRfY clone SEQ 14]”, the Kd in data set [1] (2'-F C and U, biphasic, KD2 99.5 nM, 1xSHMCK + tRNA, RT) came out at 1.08 nM. The sequence also came in with a half-inhibitory concentration (IC50) in data set [2] (2'-F C,U, ELISA FceR1-Fc, FACS 17.3 nM (Table 25)) of 26.8 nM.
Take “GGGAAAAGCGAAUCAUACACAAGAGUCGCUAGAUUGCUAGUGUAUGGUUUAUCUAAAGGCGGCCGCUCCGCCAGAGACCAACCGAGAA [rRfY clone SEQ 13]”: in data set [1] (2'-F C and U, biphasic, KD2 14.6 nM, 1xSHMCK + tRNA, RT), the Kd was 0.139 nM. Further, the IC50 in data set [2] (2'-F C,U, ELISA FceR1-Fc, FACS 10.3 nM (Table 25)) worked out at 4.3 nM.
